The text below walks through data of US20250326848A1 (SHANGHAI HENLIUS BIOTECH, published 2025).

Assay [1] concerns the target T1, human CD47 on primary human platelets (human, UniProt Q08722 19-323).
T1 construct: whole, on cells
The experiment in a line: FACS, binding to primary human platelets, donor1.

Assay [2] has as its target T1, human CD47 on primary human platelets. The experiment in a line: FACS, binding to primary human platelets, donor 2. Background: A flow cytometer gives signals particle by particle.

B1: M1 #21, anti-CD47 antibody (WO2022063316A1) (antibody, V domains shown)
VH: QVQLQQWGAGLLKPSETLSLTCAVYGGSFSGYYWSWIRQPPGKGLEWIGEINQSGSTNYNPSLKSRVTISVDTSKNQFSLRLSSVTAADTAMYYCARFTGRPYYGMDVWGQGTTVTVSS
VL: SYELTQPPSVSATPGQRVTISCSGSESNIGSHKVKWYQQFAGAAPRLLIHGNDQRFSGVPDRFSGSKSGTSASLAISGLQSEDEADYYCAAWDDSLYGRVFGGGTKLTVL
Consider B1, for which the results for the “EC50 (read off the curve)” value in assay [1] and in assay [2] were approximately 0.7 nM and approximately 0.3 nM, respectively.
